In the supplement of paper PMC10567573:

B1: TFE3 (parent)
chain: ELPNIKREISETEAKALLKERQKK
B2: FUT8 (parent)
chain: YPSYKVREKIETVKYPTYPEAEK

Variants of: B1
Experiment: protein stability index of a GFP-peptide fusion (GPS, HEK-293T) (PSI 1-6); higher = more stable
Details: c terminus: a fixed tail appended
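Also: lentivirally expressed fusions sorted by FACS into six bins by GFP to DsRed ratio, PSI derived from sequencing read proportions per bin multiplied by bin number.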

Row | Variant | protein stability index
1 | ELPNIKREISETEAKALLCERQKK | 2.07
2 | ELPNIKREISETEAKALMKERQKK | 2.05
3 | ELPNIKREISETEAKALIKERQKK | 3.06
4 | ELPNIKREISETEAKALHKERQKK | 2.56
5 | ELPNIKREISETEAKALQKERQKK | 2.96
6 | ELPNIKREISETEAKALFKERQKK | 2.28
7 | ELPNIKREISETEAKALKKERQKK | 3.19
8 | ELPNIKREISETEAKALNKERQKK | 2.4
9 | ELPNIKREISETEAKALCKERQKK | 2.6
10 | ELPNIKREISETEAKALAKERQKK | 2.67
11 | ELPNIKREISETEAKALRKERQKK | 2.32
12 | ELPNIKREISETEAKALEKERQKK | 2.5
13 | ELPNIKREISETEAKALTKERQKK | 2.65
14 | ELPNIKREISETEAKALPKERQKK | 2.77
15 | ELPNIKREISETEAKALWKERQKK | 2.37
16 | ELPNIKREISETEAKALYKERQKK | 2.92
17 | ELPNIKREISETEAKALGKERQKK | 1.87
18 | ELPNIKREISETEAKALDKERQKK | 2.07
19 | ELPNIKREISETEAKALSKERQKK | 2.77
20 | ELPNIKREISETEAKALVKERQKK | 2.2
21 | ELPNIKREISETEAKAGLKERQKK | 2.76
22 | ELPNIKREISETEAKARLKERQKK | 3.27
23 | ELPNIKREISETEAKAVLKERQKK | 3.14
24 | ELPNIKREISETEAKAQLKERQKK | 2.56
25 | ELPNIKREISETEAKAMLKERQKK | 2.71

Row | Variant | protein stability index
26 | ELPNIKREISETEAKAWLKERQKK | 2.7
27 | ELPNIKREISETEAKAILKERQKK | 2.98
28 | ELPNIKREISETEAKATLKERQKK | 2.68
29 | ELPNIKREISETEAKADLKERQKK | 2.13
30 | ELPNIKREISETEAKAHLKERQKK | 2.12
31 | ELPNIKREISETEAKAALKERQKK | 2.74
32 | ELPNIKREISETEAKAELKERQKK | 2.25
33 | ELPNIKREISETEAKAKLKERQKK | 3.17
34 | ELPNIKREISETEAKACLKERQKK | 3.09
35 | ELPNIKREISETEAKAPLKERQKK | 3.56
36 | ELPNIKREISETEAKASLKERQKK | 2.32
37 | ELPNIKREISETEAKAFLKERQKK | 2.38
38 | ELPNIKREISETEAKAYLKERQKK | 2.48
39 | ELPNIKREISETEAKANLKERQKK | 2.56
40 | ELPNIKREISETEAKALLKDRQKK | 2.79
41 | ELPNIKREISETEAKALLKVRQKK | 2.52
42 | ELPNIKREISETEAKALLKNRQKK | 2.9
43 | ELPNIKREISETEAKALLKIRQKK | 2.29
44 | ELPNIKREISETEAKALLKQRQKK | 2.77
45 | ELPNIKREISETEAKALLKPRQKK | 2.52
46 | ELPNIKREISETEAKALLKCRQKK | 2.07
47 | ELPNIKREISETEAKALLKGRQKK | 2.78
48 | ELPNIKREISETEAKALLKMRQKK | 2.59
49 | ELPNIKREISETEAKALLKYRQKK | 2.5
50 | ELPNIKREISETEAKALLKARQKK | 2.99

Row | Variant | protein stability index
51 | ELPNIKREISETEAKALLKSRQKK | 2.67
52 | ELPNIKREISETEAKALLKLRQKK | 2.44
53 | ELPNIKREISETEAKALLKKRQKK | 2.83
54 | ELPNIKREISETEAKALLKHRQKK | 2.9
55 | ELPNIKREISETEAKALLKTRQKK | 3.07
56 | ELPNIKREISETEAKALLKFRQKK | 2.03
57 | ELPNIKREISETEAKALLKRRQKK | 3.29
58 | ELPNIKREISETEAKALLKWRQKK | 2.82
59 | ELPNIKREISETEAKQLLKERQKK | 4.6
60 | ELPNIKREISETEAKILLKERQKK | 3.16
61 | ELPNIKREISETEAKFLLKERQKK | 2.08
62 | ELPNIKREISETEAKWLLKERQKK | 2.57
63 | ELPNIKREISETEAKHLLKERQKK | 4.11
64 | ELPNIKREISETEAKSLLKERQKK | 2.87
65 | ELPNIKREISETEAKGLLKERQKK | 3.47
66 | ELPNIKREISETEAKTLLKERQKK | 2.96
67 | ELPNIKREISETEAKNLLKERQKK | 4.09
68 | ELPNIKREISETEAKRLLKERQKK | 3.68
69 | ELPNIKREISETEAKMLLKERQKK | 2.63
70 | ELPNIKREISETEAKVLLKERQKK | 2.79
71 | ELPNIKREISETEAKLLLKERQKK | 2.34
72 | ELPNIKREISETEAKPLLKERQKK | 4.2
73 | ELPNIKREISETEAKKLLKERQKK | 3.91
74 | ELPNIKREISETEAKYLLKERQKK | 2.37

Variants of: B2
Experiment: as above
Details: c terminus: native

Row | Variant | protein stability index
75 | RPSYKVREKIETVKYPTYPEAEK | 4.58
76 | WPSYKVREKIETVKYPTYPEAEK | 4.46
77 | PPSYKVREKIETVKYPTYPEAEK | 5.38
78 | VPSYKVREKIETVKYPTYPEAEK | 4.97
79 | QPSYKVREKIETVKYPTYPEAEK | 4.96
80 | CPSYKVREKIETVKYPTYPEAEK | 4.41
81 | APSYKVREKIETVKYPTYPEAEK | 5.42
82 | EPSYKVREKIETVKYPTYPEAEK | 4.99
83 | SPSYKVREKIETVKYPTYPEAEK | 4.96
84 | FPSYKVREKIETVKYPTYPEAEK | 4.75
85 | LPSYKVREKIETVKYPTYPEAEK | 5.16
86 | MPSYKVREKIETVKYPTYPEAEK | 4.7
87 | GPSYKVREKIETVKYPTYPEAEK | 5.08
88 | DPSYKVREKIETVKYPTYPEAEK | 5.3
89 | NPSYKVREKIETVKYPTYPEAEK | 5.08
90 | HPSYKVREKIETVKYPTYPEAEK | 4.98
91 | IPSYKVREKIETVKYPTYPEAEK | 5.15
92 | TPSYKVREKIETVKYPTYPEAEK | 4.92
93 | YDSYKVREKIETVKYPTYPEAEK | 4.48
94 | YASYKVREKIETVKYPTYPEAEK | 3.58
95 | YCSYKVREKIETVKYPTYPEAEK | 3.11
